This data set can be described thus: label from the status in PepcDB records.
With “IYGYVEKATLIDQNLTLSAKLDTGAKSASLHAVNITEIEKKGIPYLRFTVPTKTGDYSFEGEYVGKVKIKVRSSETNPGLLRTTPIKRPVVLLNIKLGDKVRTIKVNLTNRKRFLYPLLLGRDAIIDFNGAVDPALTFTTKSK”, the protein production entry was “not failed”.
For the sequence “MRIHSPYPASWALAQRIGYLYSEGEIIYLADTPFERLLDIQRQVGQCQTMTSLSQADFEARLEAVFHQNTGESQQIAQDIDQSVDLLSLSEEMPANEDLLNEDSAAPVIRLINAILSEAIKETASDIHIETYEKTMSIRFRIDGVLRTILQPNKKLAALLISRIKVMARLDIAEKRIPQDGRISLRIGRRNIDVRVSTLPSIYGERAVLRLLDKNSLQLSLNNLGMTAADKQDLENLIQLPHGIILVTGPTGSGKSTTLYAILSALNTPGRNILTVEDPVEYELEGIGQTQVNTRVDMSFARGLRAILRQDPDVVMVGEIRDTETAQIAVQASLTGHLVLSTLHTNSASGAVTRLRDMGVESFLLSSSLAGIIAQRLVRRLCPQCRQFTPVSPQQAQMFKYHQLAVTTIGTPVGCPHCHQSGYQGRMAIHEMMVVTPELRAAIHENVDEQALERLVRQQHKALIKNGLQKVISGDTSWDEVMRVASATLESEA”, the protein production entry is given as “failed”.
The value for “MATTKKKPIHVNVDENLKEEAEQLFDDLGLNMTSAITIFLKQSINEQAIPFMINKGNKETLQALKDIKEGNVHGGFSSVEDLMEDLNALEHHHHHH” was “not failed”; that for “MEQIILDIIEFLKQFSYFGVVLALTFEFIPAEVVLPMVGYWVYEGDMNFWLAVLAGTLGGTTGPLTLYALGYYGGRPLLIKYGKYFFIKEEQIQKADDFFEKYGPVVAFVGRFVPGVRTLISVPCGKAKMNIWKFSIYTFVAMFPLTTLYVYCEMKLGPHWEKAADVVGQYMLPILVVVVIIVGGILIYKFMKKRNRSESI” was “failed”.
For the sequence “MNQNQNKKTKIVALSMMNSQTSGNPSRGTTKFESYTFDYWQYIDTLVYWGGSSGEGIIVTPSADVIDEAHSNGVPVLGTIFLPPKEYGGKVDWVKTMLKKDEQGQYPFASQMVKVAKTYGFEGWFINEETQGLNADDAANMKALIQQVKKEDSSLQIMWYDAMTKDGKVDWQNQLNDQNATFVQDKAADAMFLNFWWTQNNLADQKLLEKSNLYAKNHNIDPYNIYAGIDVQAKDVQTPVKWNLLEKGNQATQTSIGLYAASATYTNASNWDDFQNRESAFWVNQKADPRQVDHSVNESWTGLSKYVLEKSAISGNEFNTNFNLGNGYNYFKAGQKISEMDWNDRSLAGILPSYRWIIDNEGKNKISPSFDFANAYNGGNSLKFMAEHLDAGKSSNITLFASDLKIAMGAKFSVSMRSDQALKVSAILELANGQKVSIAGDKSLTENWSKLEHHHHHH”, the protein production result is listed as “not failed”.
For “PNARSQPSKTLFVKGLSEDTTEETLKESFDGSVRARIVTDRETGSSKGFGFVDFNSEEDAKAAKEAMEDGEIDGNKVTLDWAKPKGEGG” the value was “not failed”.
The value for “MEIIIYIFVSIAIISLQAITPFVIRKSECFGVNVGERANRNAELTQLKKQYVGQVILWTSFVAIIGIALIQGFHSSENTQAGIFIASMFSQLIVSFIIYYRFHHTTLQWKRDKIEAGEISTNSIIMVDTSFHRRKMVISYTWFIVPLLIFIITLAITVVFYSTAPVDFPIHFDMSGTVTDTVAKSPRVVLLLPMMQLGMIALFIFINFVIARSKQTVENENPTDSLKRNMLFRQISSKAMLIMCTIMVIDFLIMQVVTLLALPAEWMMVTMIISVVLILFGTVLLAVKVGQGGSRLKFADQPDGVNKPIRDDDSFWKAGVIYFNRNDPALFVEKRFGIGWTINTARPVAWLSFVIIIAVIILISILF” was “failed”; that for “DGRIFKMFIEHLEFEKGLDAFSQSWIKALEDSEFLAILRLLFHHIVTSESAHEFAANGIDRLYKMVESQFGSGGDKELEWLIGRSLIQMSK” was “not failed”; that for “MVHGLDRRLGLAGRIRPDALVADRCGTLIMLAGERFYRLDPMSGRLERIPCLGGRGDRAGELSGPRAMALGSRNLYVADTDNNRVCVFATVNWQVRRFIGAENPAGEPAAGTGPGEFDRPLDLAVDPCDNLYVLDAGNRRIQRFDYHGEPVPHVPPFGADRLKQPVALALGPAPSPSGGGALVHCLDTGLTAIVTFDDQGRFLGTVGLDDLGFEPAGLAVDADGKWYVSDRERFIYAIRSAGDWSPLEEYEGKALRLFAGPGGEFYALEDGEVARLTRRRRYPPAGSWTGSGPVTGIYTSRSFDTGDGRLFWHRVTLDATVPPKTQVRLSYFIYETGRDPELLPADGEWRSFPSNPADALFERKEGRYLRVRLELISEDRHATPTVVSLRLQFPKQSYLRYLPAVFQDDERGRDFLERFLSLFESVLYDLEREIFTTRRYADPCAVPAGFLPWLASWLALPDADQWLEDGGARLRTLIARANELYRCRGTRGGLAELITLYTGKEPWIVEAFQLDRIRGRSEWRETMRLFGEDPYHFTVLLPPGGAGRTETVKRIVARERPAHTCATVVALENLFRLGGHTYLEVNTNLNQPLFALETSSSLARQTYLADGEKAGQAQVRARQGMDTLFE” was “failed”.
The value for “MSRYIEAGLSDIGTLGEYVAERPNKGFEPARRRAGVSHTTVSGPKLAVAVMAVSAVCCPCGCQCVLVTPLSPRSFTLCAHIIDTMNTLVDGEWRTDAYETTNEDGAFDRQDTTFRDRVEDDPDARFQPEAGRYHLYACRACPWAHRILVARKLLGLEDAITVDYVDPFRGEDGWQFTPEKAGCTPDTVNGSDYLREVYVEADPDATCRVTVPVLWDKQEETIVNNESEEILRMLDTEFDDVSDNDVDLYPEGYQDEVDRIIDDIYEPINNGVYRSGFADSQSAYDEAVEELFDALDHWDTVLEDQRFLAGDRLTEADICLFTTLVRFDEVYHTHFMCNHKLIREYDNLWPYLRDLYQLPGVAETVNMDHITEHYYTTHPDVSPKRIVPMGPDPDFEAVHDRDELPGDLPETLFPTA” was “failed”; that for “MGHHHHHHSHAAAMANNLQKGSAGPMRLYVGSLHFNITEDMLRGIFEPFGRIESIQLMMDSETGRSKGYGFITFSDSECAKKALEQLNGFELAGRPMKVGHVTERTD” was “not failed”.
For “MLRSSAAAGKGGRILAAKQVNPTRMELTRLKKKRITAIRGHKLLKDKRDELMRQYLDLVRENMEVRKKVEAGIRSANKNFVIAKAGMSEAALNTALMAPKQEVNLEAGEKNVMSVDIPTFQYKTRTADENDIYSYGFAFTSGDLDGAVKSLADVLPDMIRLAECEKACQLMAAEIEKTRRRVNALEHVIIPETEQSIKYITMKLDENERSTQIRLMKVKDMMLEETHHYSEK”, the protein production entry is recorded as “failed”.
As for “MMSEAIIHGIILAFGLIIPLGVQNVFVFNQGASQPNIWRAAPVVLTASICDTLLILIAVQGVSLVLLTFSWLTNSLYIIGFFFLLYMGFVIWRSNPSNDVKQEKSMPLKKQILFAASVSLLNPHAILDTIGVIGTNSIQYIGSEKWAFTLATIIVSWIWFISLALAGKFLKRLDSTGKTILLLNKFSGLIIWGVALYMLKQVIYS”, the protein production entry is listed as “failed”.
The value for “MKVSLGNGEMGVSAHLQPCKAGTTRFFTSNTHSSVVLQGFDQLRIEGLLCDVTLVPGDGDEIFPVHRAMMASASDYFKAMFTGGMKEQDLMCIKLHGVNKVGLKKIIDFIYTAKLSLNMDNLQDTLEAASFLQILPVLDFCKVFLISGVSLDNCVEVGRIANTYNLIEVDKYVNNFILKNFPALLSTGEFLKLPFERLAFVLSSNSLKHCTELELFKAACRWLRLEDPRMDYAAKLMKNIRFPLMTPQDLINYVQTVDFMRTDNTCVNLLLEASNYQMMPYMQPVMQSDRTAIRSDSTHLVTLGGVLRQQLVVSKELRMYDERAQEWRSLAPMDAPRYQHGIAVIGNFLYVVGGQSNYDTKGKTAVDTVFRFDPRYNKWMQVASLNEKRTFFHLSALKGHLYAVGGRSAAGELATVECYNPRMNEWSYVAKMSEPHYGHAGTVYGGLMYISGGITHDTFQNELMCFDPDTDKWMQKAPMTTVRGLHCMCTVGDKLYVIGGNHFRGTSDYDDVLSCEYYSPTLDQWTPIAAMLRGQSDVGVAVFENKIYVVGGYSWNNRCMVEIVQKYDPEKDEWHKVFDLPESLGGIRACTLTVFPPEENPGSPSRESPLSAPSDHS” was “failed”.
On to “MGAAAAPEVNMELVGHFGGTTDAVDVAGNYAYVGQGQDFLILDITNPSSPVLVSKIMTEGFVRDIKVSRNYAYVADDDNGLVIVDISNPSSPTLKGSYNIPGYTYCITVSGNYAYVADNDGLVIVDISNPSDPILKGRYAGPTGDVAVYGNYAYVADWGNGLMIVDISNPSSPVLKGSYDTAGDIYGVSISGNYAYVADGDTGLVIVDISNPSSPTLKGNYNTAGIACDVSVLGNYAYVADNDNGLVIVDISDPSSPVLKGNGSTTGYAHGIEVSGNYAYVANSNTGLVIVDISNPSSPTLKGSCDTIVRAKSIAVSGNYAYIADWDNGLVIVDISNPSSPFLKGSCDTPRSAQGVAVSGNYAYVADDDGLVIVDISNPSFPILNKSYNTGGWAQGITVSGNYAYVIDMANGIFIVDISNPSSPILEGMYDTSPIIIENYDYTGSIWSVSVSGNYAYVADEGNGLLIVDISNPSSPILKGSYDTAGLAYDVAVSGNYAYVADSKNGLAIIDISNPSSPILVGNYNTSGYAECVSISGNYAYVAVDDSLVVVDISNPSSPILKGLYAGSAGDIAVSGNYVYASEGVNGLVILKANPESAFTVADFSSNITSGYAPLSIQFNDHSQNATSWNWDFGDGYNSTNQNPIHTYSSAGTYTVNLTVINENRTASKVAKIFVLNTSLEHHHHHH”, for which the protein production entry is on record as “failed”.
For “MFKKHNFHFNWLPLILISTVSIMLIFNIRSILSEGIRPFLSVLTPFFWAFGIAYLINPLMMLIEKKFKLKRAFSLMISYILVIICVYILIAIIVPTIFDSLSELFSNLSEYASSAESWINNTLASMNVPLDLNHLNTSATEFISKTSTLLSNIVGSLLTQTIKITSSVVKFVFGFIISIYMLMDKETLIEGCKKIIIAVMPSEKSSELFISFMAEAHNIFSRFIIGKIIDSLIIGVLCYIGLLLMGTQYAVLISFIVGLTNMIPYFGPFIGMIPAFLLTLIVQPSMAIWVLLFIFILQQFDGWYLGPKILGDQVGVSPLFIIFAVTVGGGIFGVLGMFLSVPIIALIKIYTEKFIEYRLENKKQNFSE” the value was “failed”; for “TEALRMEREALLAEMGVAVREDGGTVGVFSPKKTPHLVNLNEDPLMSECLLYHIKDGVTRVGQVDMDIKLTGQFIREQHCLFRSIPQPDGEVVVTLEPCEGAETYVNGKLVTEPLVLKSGNRIVMGKNHVFRFNHPEQARLE”, “failed”.
For “MLTRPMGEGYIQYLRLSKETTQPADSKIPGLWSSSVRPEFCCIYRVPDRLRKVNPEAYTPQMLLIGPLHHSKKAEALKRYKTDLRYLNYLNMELHKKKCLDSIADIYGDQPVKEFRRIIEINEKFIRDSYAESTIWINTKDFVEMILHDSVFILLFFIQTGSTLNFNKKEDILFNQSRLINATAILEDLILLENQLPYALLEKLFEPFSSNVNTKETFRDITLRAFRFEGKIKEEVRFQHFTDLFRCVRVSTLSLTEEQINIAKNEPPKSRKIMYNADKLDSAGVNFVNVDEENDLSLVITFKDGILKMPCFTVEDNTERVVRNLMALEQCHYPRTTFVCDYISFLDFLINTDQDVDLLAKKGIVKNWLGHQGSVTEMVNKLCLGLVDFGSHYSDIVENLNKHYDNRLNRSVGTLRRVYFKDLWTGTATIAAVVLLVLTLIQTVASILQVMMQNDNKSPPPPAPSRGL” the value was “failed”; for “MAADGIFRSIFEGCISGLDSAIERRPYHKNCGCALHDKSSGAGKNQNQRRPPSCRRHGSSESISFPIRRSWSEGNIMAMNLFSSSSSSSNLQSLSSSSSLSNLASDLPVDNAATEEPSRSNKQLRWTIDEGEDD”, “failed”; for “MKNVLLLGESGFVGSVVYNSLHCVCKVYTIAPNKKITIDNVFEVANDVFKSIEINNIDVVINCIAMANLDQCENNKLDCELVNTTFVTHIVDYLKDKDIKLVHISSNAVYDGLNAPYSENSLREPINYYGICKSNADYYIESNLNNYAIARPITVYGPRKIEQRDNPVSFIVKKILSGESFDLVDDNIVNMIHVEDLSNAIKKLSLSDLKGVYNLSGDVSECRYDLGIRIAKIMGSDLNKINKVSGSNFKMAAKRPYNTSFDNKKMKSVLNIEPKNIDIAISEILNAKAY”, “failed”.

Values taken from a protein production outcome set (Wang et al. 2014).
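Note: failed if final PepcDB status was selected cloned or expressed and not failed if soluble or beyond.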
